The record followed here is US20110311553A1 (Boehringer Ingelheim, published 2011).

The chains are these.
B1: Ab4994 IgG4_Pro (antibody, V domains shown)
VH: QVQLVESGGGLVQPGGSLRLSCAASGFTFSSYAMNWVRQAPGKGLEWVSAISYSGHLTGYADSVKGRFTISRDNSKNTLYLQMNSLRAEDTAVYYCARIQNDPMDVWGQGTLVTVSS
VL: DIELTQPPSVSVAPGQTARISCSGDNLGKKYVQWYQQKPGQAPVLVIYDDSNRPSGIPERFSGSNSGNTATLTISGTQAEDEADYYCSSWDVGSDGWVFGGGTKLTVLG
B2: Ab4999 IgG4_Pro (antibody, V domains shown)
VH: QVQLVESGGGLVQPGGSLRLSCAASGFTFSSYAMNWVRQAPGKGLEWVSTISYSSSATSYADSVKGRFTISRDNSKNTLYLQMNSLRAEDTAVYYCARIQNDPMDVWGQGTLVTVSS
VL: DIELTQPPSVSVAPGQTARISCSGDNLGKKYVQWYQQKPGQAPVLVIYDDSNRPSGIPERFSGSNSGNTATLTISGTQAEDEADYYCQTWDYSSIRDETNVFGGGTKLTVLG
B3: Ab5005 IgG4_Pro (antibody, V domains shown)
VH: QVQLVESGGGLVQPGGSLRLSCAASGFTFSSYAMNWVRQAPGKGLEWVSTISYSSSATSYADSVKGRFTISRDNSKNTLYLQMNSLRAEDTAVYYCARIQNDPMDVWGQGTLVTVSS
VL: DIELTQPPSVSVAPGQTARISCSGDNLGKKYVQWYQQKPGQAPVLVIYDDSNRPSGIPERFSGSNSGNTATLTISGTQAEDEADYYCQSWALVGSSESNVFGGGTKLTVLG
B4: Ab5150 IgG4_Pro (light chain of Ab4999 combined with heavy chain of Ab5003) (antibody, V domains shown)
VH: QVQLVESGGGLVQPGGSLRLSCAASGFTFSSYAMNWVRQAPGKGLEWVSAISYKGHLTGYADSVKGRFTISRDNSKNTLYLQMNSLRAEDTAVYYCARIQNDPMDVWGQGTLVTVSS
VL: DIELTQPPSVSVAPGQTARISCSGDNLGKKYVQWYQQKPGQAPVLVIYDDSNRPSGIPERFSGSNSGNTATLTISGTQAEDEADYYCQTWDYSSIRDETNVFGGGTKLTVLG
B5: Ab5003 IgG4_Pro (antibody, V domains shown)
VH: QVQLVESGGGLVQPGGSLRLSCAASGFTFSSYAMNWVRQAPGKGLEWVSAISYKGHLTGYADSVKGRFTISRDNSKNTLYLQMNSLRAEDTAVYYCARIQNDPMDVWGQGTLVTVSS
VL: DIELTQPPSVSVAPGQTARISCSGDNLGKKYVQWYQQKPGQAPVLVIYDDSNRPSGIPERFSGSNSGNTATLTISGTQAEDEADYYCSSWDVGSDGWVFGGGTKLTVLG
B6: Ab4997 IgG4_Pro (antibody, V domains shown)
VH: QVQLVESGGGLVQPGGSLRLSCAASGFTFSSYAMNWVRQAPGKGLEWVSAISYNGKLKGYADSVKGRFTISRDNSKNTLYLQMNSLRAEDTAVYYCARIQNDPMDVWGQGTLVTVSS
VL: DIELTQPPSVSVAPGQTARISCSGDNLGKKYVQWYQQKPGQAPVLVIYDDSNRPSGIPERFSGSNSGNTATLTISGTQAEDEADYYCSSWDVGSDGWVFGGGTKLTVLG
B7: Ab5149 IgG4_Pro (light chain of Ab4999 combined with heavy chain of Ab4997) (antibody, V domains shown)
VH: QVQLVESGGGLVQPGGSLRLSCAASGFTFSSYAMNWVRQAPGKGLEWVSAISYNGKLKGYADSVKGRFTISRDNSKNTLYLQMNSLRAEDTAVYYCARIQNDPMDVWGQGTLVTVSS
VL: DIELTQPPSVSVAPGQTARISCSGDNLGKKYVQWYQQKPGQAPVLVIYDDSNRPSGIPERFSGSNSGNTATLTISGTQAEDEADYYCQTWDYSSIRDETNVFGGGTKLTVLG
B8: Ab5007 IgG4_Pro (antibody, V domains shown)
VH: QVQLVESGGGLVQPGGSLRLSCAASGFTFSSYAMNWVRQAPGKGLEWVSAISFSGHLTGYADSVKGRFTISRDNSKNTLYLQMNSLRAEDTAVYYCARIQNDPMDVWGQGTLVTVSS
VL: DIELTQPPSVSVAPGQTARISCSGDNLGKKYVQWYQQKPGQAPVLVIYDDSNRPSGIPERFSGSNSGNTATLTISGTQAEDEADYYCSSWDVGSDGWVFGGGTKLTVLG
B9: Ab5151 IgG4_Pro (light chain of Ab4999 combined with heavy chain of Ab5007) (antibody, V domains shown)
VH: QVQLVESGGGLVQPGGSLRLSCAASGFTFSSYAMNWVRQAPGKGLEWVSAISFSGHLTGYADSVKGRFTISRDNSKNTLYLQMNSLRAEDTAVYYCARIQNDPMDVWGQGTLVTVSS
VL: DIELTQPPSVSVAPGQTARISCSGDNLGKKYVQWYQQKPGQAPVLVIYDDSNRPSGIPERFSGSNSGNTATLTISGTQAEDEADYYCQTWDYSSIRDETNVFGGGTKLTVLG
B10: Ab4996 IgG4_Pro (antibody, V domains shown)
VH: QVQLVESGGGLVQPGGSLRLSCAASGFTFSNHAMHWVRQAPGKGLEWVSAISHPGKFTYYADSVKGRFTISRDNSKNTLYLQMNSLRAEDTAVYYCARHGDGMDYFDFWGQGTLVTVSS
VL: DIELTQPPSVSVAPGQTARISCSGDNIGTKYVYWYQQKPGQAPVLVIYDDNNRPSGIPERFSGSNSGNTATLTISGTQAEDEADYYCQSYDSQTMVFGGGTKLTVLG

For this assay, the target named is Labeled peptide representing the N-terminus of PAR-2 (FRET peptide). In words: cell-based or functional assay.
Turning to B1, the “FRET Peptide Cleavage IC50” value was below 30 nM.

Take B2: the “FRET Peptide Cleavage IC50” value is below 30 nM.

On to B3, for which the “FRET Peptide Cleavage IC50” value was below 30 nM.

With B4, the “FRET Peptide Cleavage IC50” value is below 30 nM.

For B5, the “FRET Peptide Cleavage IC50” value was below 30 nM.

B6: the “FRET Peptide Cleavage IC50” value is below 30 nM.

For B7, the “FRET Peptide Cleavage IC50” value was below 30 nM.

Regarding B8, the “FRET Peptide Cleavage IC50” value was below 30 nM.

Take B9: the “FRET Peptide Cleavage IC50” value is below 30 nM.

Consider B10, for which the “FRET Peptide Cleavage IC50” value is below 30 nM.
